In patent publication US20230025572A1 (published 2023):

T1: MAGE-A1 peptide on HLA-A*02:01 (human)
T1 peptide: KVLEYVIKV

T2: MAGE-B5 peptide on HLA-A*02:01 (human)
T2 peptide: KVLEYLAKV

T3: MAGE-B16 peptide on HLA-A*02:01 (human)
T3 peptide: KVLEFVAKV


How the values were obtained:
[1] = target: T1, MAGE-A1 peptide on HLA-A*02:01; experiment: multimer staining
[2] = target: T2, MAGE-B5 peptide on HLA-A*02:01; experiment: cytokine release
Procedure: (§1) FIG. 18 T2 cells were loaded with 10-5 mol/l MAGE-A1278 (SEQ ID NO: 11) or the 2 most similar epitopes in the human proteome (MAGE-B16 and MAGE-B5, SEQ ID NOs: 54 and 55, respectively) differing in only 2 amino acids from MAGE-A1278 and co-cultured with TCR modified T cells. Functional response was assessed based on IFNγ production.

[3] = target: T3, MAGE-B16 peptide on HLA-A*02:01; experiment: cytokine release
Procedure: as §1

| binding result [1] | binding result [2] | binding result [3] | Binder |
| --- | --- | --- | --- |
| recognises | no recognition | no recognition | TCR 1705 (TCR, V domains shown) Valpha: QKEVEQDPGPLSVPEGAIVSLNCTYSNSAFQYFMWYRQYSRKGPELLMYTYSSGNKEDGRFTAQVDKSSKYISLFIRDSQPSDSATYLCAMSDTGNQFYFGTGTSLTVIP Vbeta: AAGVIQSPRHLIKEKRETATLKCYPIPRHDTVYWYQQGPGQDPQFLISFYEKMQSDKGSIPDRFSAQQFSDYHSELNMSSLELGDSALYFCASSFRGGGANVLTFGAGSRLTVL |
| recognises | no recognition | no recognition | TCR 1367 (TCR, V domains shown) Valpha: GEDVEQSLFLSVREGDSSVINCTYTDSSSTYLYWYKQEPGAGLQLLTYIFSNMDMKQDQRLTVLLNKKDKHLSLRIADTQTGDSAIYFCAESIGSNSGYALNFGKGTSLLVTP Vbeta: DVKVTQSSRYLVKRTGEKVFLECVQDMDHENMFWYRQDPGLGLRLIYFSYDVKMKEKGDIPEGYSVSREKKERFSLILESASTNQTSMYLCASRGLAGYEQYFGPGTRLTVT |
| recognises | no recognition | no recognition | TCR 1405 (TCR, V domains shown) Valpha: GENVEQHPSTLSVQEGDSAVIKCTYSDSASNYFPWYKQELGKGPQLIIDIRSNVGEKKDQRIAVTLNKTAKHFSLHITETQPEDSAVYFCAARPNSGNTPLVFGKGTRLSVIA Vbeta: SAVISQKPSRDICQRGTSLTIQCQVDSQVTMMFWYRQQPGQSLTLIATANQGSEATYESGFVIDKFPISRPNLTFSTLTVSNMSPEDSSIYLCSVEQDTNTGELFFGEGSRLTVL |
